Experimental data taken from the nanobody polyreactivity screen of Harvey et al. (2022).

Test: yeast display, Sf9 membrane polyspecificity reagent, FACS + sequencing; frameworks hold sequencing errors
Summary of the method: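 In a synthetic yeast display library (Saccharomyces cerevisiae BJ5465), nanobody expression was induced with galactose for 36–48 hours. FACS gates were set low and high (top ~1%) using anti-HA fluorescence for expression and streptavidin fluorescence for binding of the Sf9 membrane reagent. Each polyreactivity label is drawn from the gate of origin.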

Row | Sequence | polyreactivity (PSR sort gate)
1 | QVQLEESRGGLVQAGGSLRLSCAASGLNFRSNAMGWYRQAPGKERELVAAISSSGGSTYYADSVKGRFTISRENAKNTVYLQMNSLKPEDTAVYYCAAEDPADQYDYWGQGTQVTVSS | high polyreactivity
2 | QVQLVESGGGLVQAGGSLRLSCAASGSTFVYYAMGWYRQAPGKERELVAAIRNGDGTNYADSVKGRFTISRDNAKNTVYLQMNSLKPEDTAVYYCAAPQGEYFYVYEFDYWGQGTQVTVSS | low polyreactivity
3 | QVQLVESGGGLVQAGGSLRLSCAASGSTFVYNAMGWYRQAPGKERELVAGIRSSGDRTYYADSVKGRFTISRDNGKNTVYLQMNSLKPEDTAVYYCAAYLGRDPWFSRQGYGYWGQGTQVTVSS | high polyreactivity
4 | QVQLVESGGGLVQAGGSLRLSSAASGFTFEFYAMGWYRQAPGKERELVAAITGSGGSTYYADSVKGRFTISRDNAKNTVYLQMNCLKPEDTAVYYWNAVTRRSAQVGHDYWGQVTQVTVSS | high polyreactivity
5 | QVQLVESGGGLVQAGGSLRLSCDASARTFYRNTMGWYRQAPGKERELVAAITRSGGSTYYADSVKGRFTISRDNAKNTVYLQINRLKPEDTAVYYCAASRTYYAPYGYWGQGTQVTVSS | high polyreactivity
6 | QVQLVESGGGLVQAGGSLRLSCAASAITLDGNAMGWYIQAPGKERELVAAITSGGGTNYADSVKGRFTISRDNAKNTVYLEMNSLKQEDTAVYYCAETGRLLTSNYWGLGTQVTVSS | low polyreactivity
7 | QVQLVESGGGLVQAGGSLRFSCAASGSIFDYYAMGWYRQAPGKERELVASITWSGGRTSYADSVKGRFTISRDNAKNTVYLQMNSLKPEDTAVYYCAAKLWSYAYQHKRVWYYYWGQGTQVTVSS | high polyreactivity
8 | QVQLQESGGGLVQAGGSLRLSCAASGSIFVSVTMGWYRPAPGKERELVASIGRGSTTNHADSVKGRFTISRDNAKNIVYLLMNSLKPEDTAVYYCAALESYGKYHGYWGQGTQVTVSS | low polyreactivity
9 | QVHLVESGGGLVQAGGILRLSCPASGSTFVYYAMVWYRQAPGKERELVAAISRSGGNTYYAYSVKGRFTISRDNAKNTVYLQMNSLKQEDTAVYYCAARSYGVQYYYWGQGTQVTVSS | high polyreactivity
10 | QVQLVESGGGLVQAGGSLRLSCAASGSTFVKNVMGWYRQAPGKERELVAGITRGGSTYYADSVKGRFTISRDNAKNTVYLQMNSLKPEDTAVYYCNRVRYPSYDYWGQGTQVTVSS | high polyreactivity
11 | QVQLVESGGGLVQAGGRLRLSCAASGSILGDNAMGWYRQAPGKERELVAAISYRGGSTYADSVKGRFTISRDNATNTVYLQKNSLKPDDTAVYYCNKTDIDDSQYREYEYWGQGTQVTVSS | low polyreactivity
12 | QVQLVESGGGLVQAGGSLRLSCAASGRTFGGNAMGWYRQAPGKERELVAVIRSTGGSTYYADSVKGRFTISRDTAKNTVYVQMNSLKPEDTAVYYCAKGRGRNFGYWGQGTQVTVSS | high polyreactivity
13 | QVQLVESGGGLVQAGGSLRLSCAASGSIFNYYAMGWYRQAPGKERELVAAITSADGRTFYADSVKGRFTISRDNANNTVYLQMNSLKPDDTAVYYCAAERTSRYSTYEYWGQGTQVTVSS | low polyreactivity
14 | QVQLVESGGGLVQAGGSLRLSCAASGRTYNGYVMGGYRQAPGTEREFVAVINWSGGNTYDADSVKGRFTISRDNAKNTVSLQMNRLKPDDTAVYYCAPRRVRSYAYDYWGQGTQVTVSS | high polyreactivity
15 | QVQLVESGGGLVQAGGSLRLSCAASGFIFVKNAMGWYRQAPGKERELVAVISTRGGRTYYADSVKGRFTISRDNAKNTVYLQMNSLKPEDTAVYYCAAGDQYKTRRNGYGYWGQGTQVTVSS | high polyreactivity
16 | QVQLVESGGGLVQAGGSLRLSCAASGSIFYPYAMGWYSQAPGKERELVAGISRSGASTYYADSVKGRFTISRDNAKNTVYLQMNSLKPEDTAVYYCAADDWTRNYWGQGTQVTVSS | low polyreactivity
17 | QVQLVESGGGLVQAGGSLRLSCAASGYTFRYNTMGWYRQAPGKERELVADISSGVGNTYYADSVKGRFTISRDNAKNTVYLQMNSLKPEDTAVYYCNADYKSSYYWYLWYNYWGHGTQVTVSS | low polyreactivity
18 | HVQLEESGGGLVQAGGSLRLSCAASGSISRANPSGWSRTAPGKERELLPANSRGGTTTYYADSVKGRFTISRDNAKNTVYLQMNSLKPEDTAVYYCAAVAGGGFPRWRIYFWPKGDYWGQGTQVTVSS | high polyreactivity
19 | QVQLVESGGGLVQAGGSLRLSCAASGSILDPYVMGWYRQSPGKEWELVAAITQSGGSTYYADSVKGRFTISRDNAKNTVYLQMNSLKPEDTAVYYCATTRPIRRTSARYNYWGQGTQVTVSS | low polyreactivity
20 | QVQLVESGGGLVQAGGSLRLSCAASGSTFGYNTMGWYRQAPGKERELVASITGRGGSTYYADSVKGRFTISRDNAKNTVYLQMNSLKPEDTAVYYCAAAWKAYRRYGYWGQGTQVTVSS | high polyreactivity
21 | QDQLVESGGGLVQAGGSLRLSCAASGRTYASNAMGWYRQAPGKERELVAAITYSGSSTYYADSVKGRFTISRDNAKNTVYLQMNSLKPEDTAVYYCGKGGRRWTYKTWKGYDYWGQGTQVTVSS | high polyreactivity
22 | QVQLVESGGGLVQAGGSLGLSCAASGRTFDDYSMGWYRQAPGKEMEFVAGITDNGGGTNYADSVKGRFTISRDNAMNTVYLQMNSLKPEDTAVYYCNAASDDFFPGRSTYGRDYWGQGTQVTVSS | low polyreactivity

Row | Sequence | polyreactivity (PSR sort gate)
23 | QVQLVESGGGLVQAGGSLRLSCAASGRTFASYAMGWYRQAPVKERELVARISKSGGSTYYADSVKGRFTISRDNAKNTVYLQMNSLKPEDTAVYYCAATRYPYLYRSEVGSDYWGQGTQVNVSS | low polyreactivity
24 | QVQLVESGGGLVQAGGSLRLSCAASGSIFTAYTMGWYRQAPGKERELVAAITERGGSTYYADSVKGRFTISRDNAKKTVYLQMNSMKPEDTAVYYCAASTLKDIYLWFRVDYWGQGTQVTVSS | low polyreactivity
25 | QVQLVESGGGLVQAGGSLRLSCAASGRTFQYYAMGWYRQAPGKERELVAAISWSGGSTYYADSVKGRFTISRDNAKNTVYLQMNSLKPEVTAVYYCAASFRGQIVGYWGQGTQVTVSS | high polyreactivity
26 | QVQLVESGGGLVQAGGSLRLSCAASGSTFAGYALGWYRQAPGKERELVADITWSGGSTYYADSVKGRFTISRDNAKNTVYLQMNSLKPEDTAVYYCAAAGYYSDMDYWGQGTQVTVSS | low polyreactivity
27 | QVQLVESGGGLVQAGGSLRLSCAASGRIFGGNADMGWDRQAPGKERELVAVIDWSGGSTYYADSVKGRFTISRDNAKNTVYFQMHSLKPEDTAVYYCNADAPRSSGDYGQGDYWGQGTQVTVSS | high polyreactivity
28 | QVQIVESGGGLVQAGGSLRLSCPASGSIFPQYAMGWSRQAPRKERELVAGISGSGGGTYYADSVKGRITILRDNAKNNVFLQMNSVKPEETAVYYCNALYAPYGWFYGLYDYGGQGTQVTVSS | low polyreactivity
29 | QVQLVESGGGLVQAGGSLRLSCAASGSTFRYYAMGWYRQAPGKERELVAAISGSGGRTYYADSVKGRFTISRDNAKNTVYLQMNSLKPEDTAVYYCITRGRRTDYDYWGQGNQVTVSS | high polyreactivity
30 | QVQLVESGGGLVQAGGSLRLSCAASGSIFSRNAKGWYRQAPGKERELVAAITSGGSTNYADSVKGRFTISRDNAKNTVYLQMNSLKPEDTAVYYCARGWISGFTSRYSIRVLFDYWGQGTQVTVSS | high polyreactivity
31 | QVQLVESGGGLVQAGGSLRLCCAASGRIFRYNAMGWYRQAPGKERELVAAITRSGGSTYYADSVKGRFTISRDNAKNTVYLQMNSLKPEDTAVYYCAKVQNGQWSTSRVPGDYQYNYWGQGTQVTVTS | high polyreactivity
32 | QVQLVESGGGLVQAGGSLRLSCAASGGIFPGNAMGWYRQAPGKERELVATISYSGGSTYYADSVKGRFTISRDYAKNTVYLQMNSLKPEDTAVYYCAARGYKPTRSRRTEYGYWGQGTQVTVSS | high polyreactivity
33 | QVQLVESGGGLVQAGGSLRLSCAASGRIFYIYAMGWYRQAPGKERELVAAISSGGTTNYADSVKGRFTISRDNAKNTVYLQMNSLKPEDTAVYYCAAYWRSRNRFYWGQGTQVTVSS | high polyreactivity
34 | QVQLVESGGGLVQAGGSLRLSCAASGSTYGRNAMGWYRQATGKERELVAAINSGGGTYYADSVKGRFTISRDNAKNTVYLQMYSLKPEDTAVYYCAAARRYGKYDYWGQGTQVTVSS | low polyreactivity
35 | QVQLVESGGGLVQAGGSLRLSCAASGSTISGYAMGWYRQAPGKERELVAAISSGGSTYYADSVKGRFTISRDNAKNTVYLQLNSLKPEDTAVFYCNVARSRYRYRYDYWGQGTQVTVSS | high polyreactivity
36 | QVQLEESGGGLVQAGGRLRLSCAASGSTFVDYAMGWYRQAPGKQRELVAAISWRGGSTYYADSVKGRFTISRDNAKKTVYLQMNSLKPEDTAVYYCAAEHSGRSPYGYGYWGQGTQVTVSS | high polyreactivity
37 | QDQLVESGGGLVPAGGSLRLSCAASGGILPQYAMGWYRQAPGKERELVAAITRGGARTYYADSVKGRFTISRDNAKNTVYLQMTSLKPEDTAVYYCAARGPGYQLYDYWGQGTQVTVSS | high polyreactivity
38 | QVQLVESGGGLVQAGGSLRLSCAASGFTFGPYAMGWYRQAPGKERELVAASSQSGGRTSYADSVKGRFTISRDNAKNTVYLPMNSLKPEDTAVYYCAKRAYGYRSIYRMDYWGQGTQVTVSS | high polyreactivity
39 | QVQLVESGGGLVQAGGSLRLSCAASGRILSYYPMGWYRQAPGKERELVAVIRRGASTYADSVKGRFTISRDNAKKTVYLQMNILKPEDTAVYYCAAADRDYTTFRYDYWGQGTQVTVSS | low polyreactivity
40 | QVKLVESGGGLVQAGGSLRLSCAASGRTLGGYAMRWYRQAPGKERQLVAAITRRGGSRYYADTVKGRFTISRDNAKNTVYLQMNSLKPEDSAVYYCAARWYARSLTRFNYWGKGTQVTVSS | high polyreactivity
41 | QVQLVESGGGLVQAGGSLRLSSAASGLIYPVYAMGWYRQAPGKEREFVASIWRGGTTYYADSVKGRFTISRDNAKNTVYLQMTSLKPEDTAVYYCASRYYPRGLVFPFTKYDYWGLGTQVTVSS | high polyreactivity
42 | QVQLVESGGGLVQAGGSLRLSCAASGNIFGGYAMGWYRQAPGKERELVATIRDRGGSTYYADSVKGRFTISRDNAKNSVYLQMNSLKPEDTAVYYCNPRFRTYRLTMEYWGQGTQVTVSS | high polyreactivity
43 | QVQLVESGGGLVQAGGSLRLSCAASGSTFEYYAMGWYRQAPGKERELVAAISTGGSTYYADSVKGRFTISRDNAKNTVYLQMNSLKPEDTAVYYCAALYRTSYVRMGYWGQGTQVTVSS | high polyreactivity
